# From publication PMC9274624
# pKd: −log10 of the molar value.
# Target: Malayan pangolin ACE2 extracellular domain (residues 1-740) fused with the Fc domain of mouse IgG (Malayan pangolin)
# Test: SPR
substance,measurement,value
SARS-CoV-2 Delta RBD (residues 319-541) (from UniProt P0DTC2 319-541) (domain or fragment),pKd,7.24
